Laboratory results from US20230220042A1 (SHANGHAI JIAO TONG UNIVERSITY SCHOOL OF MEDICINE, published 2023).
Residue numbers refer to the chain shown, from its start. Names and notes keep the numbering of the source.

T1: FcγRIIB (human, UniProt P31994 43-217, biotin-labeled)
T1 construct: extracellular domain; Bought protein; also called CD32b
T1 sequence (looked up): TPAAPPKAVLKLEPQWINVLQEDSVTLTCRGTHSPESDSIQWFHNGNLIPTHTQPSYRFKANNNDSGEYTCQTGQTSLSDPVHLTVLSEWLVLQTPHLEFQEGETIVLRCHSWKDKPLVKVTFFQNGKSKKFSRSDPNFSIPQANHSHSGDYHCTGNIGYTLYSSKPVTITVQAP

T2: FcγRIIA^131H (human, UniProt P12318 34-217, biotin-labeled)
T2 construct: extracellular domain; Bought protein; also called RIIAH
T2 sequence (looked up): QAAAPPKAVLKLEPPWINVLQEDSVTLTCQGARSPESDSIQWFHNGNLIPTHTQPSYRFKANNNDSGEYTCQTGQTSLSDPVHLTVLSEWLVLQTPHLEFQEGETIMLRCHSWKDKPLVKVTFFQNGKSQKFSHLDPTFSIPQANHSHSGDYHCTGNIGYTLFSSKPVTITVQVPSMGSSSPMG

T3: FcγRIIA^131R (human, UniProt P12318 34-217, biotin-labeled)
T3 construct: extracellular domain; Bought protein; also called RIIAR
T3 sequence (looked up): T2 sequence (looked up) with H134R

B1: anti-human OX40 IgG2 antibody Mut_5 (A235W/V266L/S298L/L328W) (antibody)
heavy: QVQLQESGPGLVKPSGTLSLTCAVSGGSISSSIWWSWVRQPPGKGLEWIGEIHHSGNTNCNPSLKSRVTISIDKSKNQFSLKLTSVTAADTAVYYCARAGTGTTLDYWGQGTLVTVSSASTKGPSVFPLAPCSRSTSESTAALGCLVKDYFPEPVTVSWNSGALTSGVHTFPAVLQSSGLYSLSSVVTVPSSNFGTQTYTCNVDHKPSNTKVDKTVERKCCVECPPCPAPPVWGPSVFLFPPKPKDTLMISRTPEVTCVVVDLSHEDPEVQFNWYVDGVEVHNAKTKPREEQFNLTFRVVSVLTVVHQDWLNGKEYKCKVSNKGWPAPIEKTISKTKGQPREPQVYTLPPSREEMTKNQVSLTCLVKGFYPSDIAVEWESNGQPENNYKTTPPMLDSDGSFFLYSKLTVDKSRWQQGNVFSCSVMHEALHNHYTQKSLSLSPGK
light: EIVLTQSPGTLSLSPGERATLSCRASQSVSGDYLAWYQQKLGQAPRLLIYGASIRATGIPDRFSGSGSGTDFTLTISKLEPEDFAVYYCQQYGSSPLTFGGGTKVEIKRTVAAPSVFIFPPSDEQLKSGTASVVCLLNNFYPREAKVQWKVDNALQSGNSQESVTEQDSKDSTYSLSSTLTLSKADYEKHKVYACEVTHQGLSSPVTKSFNRGEC
notes: Substitutions in Eu numbering; entries include an unstated signal peptide
B2: anti-human OX40 IgG2 antibody Mut_6 (V234Q/A235G/P238L/S239V/H268D/G327A/L328E/A330S/I332T) (antibody)
heavy: QVQLQESGPGLVKPSGTLSLTCAVSGGSISSSIWWSWVRQPPGKGLEWIGEIHHSGNTNCNPSLKSRVTISIDKSKNQFSLKLTSVTAADTAVYYCARAGTGTTLDYWGQGTLVTVSSASTKGPSVFPLAPCSRSTSESTAALGCLVKDYFPEPVTVSWNSGALTSGVHTFPAVLQSSGLYSLSSVVTVPSSNFGTQTYTCNVDHKPSNTKVDKTVERKCCVECPPCPAPPQGGLVVFLFPPKPKDTLMISRTPEVTCVVVDVSDEDPEVQFNWYVDGVEVHNAKTKPREEQFNSTFRVVSVLTVVHQDWLNGKEYKCKVSNKAEPSPTEKTISKTKGQPREPQVYTLPPSREEMTKNQVSLTCLVKGFYPSDIAVEWESNGQPENNYKTTPPMLDSDGSFFLYSKLTVDKSRWQQGNVFSCSVMHEALHNHYTQKSLSLSPGK
light: B1 light
notes: entries include an unstated signal peptide
B3: anti-human OX40 IgG2 antibody Mut_7 (S239V/V266L/S298L/L328W) (antibody, name in EU numbering)
heavy: B1 heavy with W233A, S236V
light: B1 light
notes: as for B1
B4: anti-human OX40 IgG2 antibody Mut_9 (V266L/S267D/H268D/E269D/P271Q) (antibody, name in EU numbering)
heavy: B1 heavy with W233A, S264D, H265D, E266D, P268Q, L295S, W325L
light: B1 light
notes: as for B1
B5: anti-human OX40 IgG2 antibody Mut_10 (S267E/H268S/E269D) (antibody, name in EU numbering)
heavy: B1 heavy with W233A, L263V, S264E, H265S, E266D, L295S, W325L
light: B1 light
notes: as for B1
B6: anti-human OX40 IgG2 antibody Mut_11 (S267E/A330S) (antibody, name in EU numbering)
heavy: B1 heavy with W233A, L263V, S264E, L295S, W325L, A327S
light: B1 light
notes: as for B1
B7: anti-human OX40 IgG2 antibody Mut_12 (P233F/V266L/S298L/L328W) (antibody)
heavy: B1 heavy with P231F, W233A
light: B1 light
notes: as for B1
B8: anti-human OX40 IgG2 antibody Mut_13 (V266L/S298L/L328W) (antibody, name in EU numbering)
heavy: B1 heavy with W233A
light: B1 light
notes: as for B1
B9: anti-human OX40 IgG2 antibody Mut_14 (V234M/S267E/S298G/I332L) (antibody)
heavy: B1 heavy with V232M, W233A, L263V, S264E, L295G, W325L, I329L
light: B1 light
notes: as for B1

Columns and labels:
FcγRIIB [1] = molecular target: T1, FcγRIIB; test: ELISA, coated antibody, biotin-FcγR;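 for Absorbance value: antibody coated at 2 µg/mL at 100 µL per well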
Procedure: (§1) One hundred μl (2 μg/mL) of antibody or mutant thereof were added to the enzyme-linked plate to be coated overnight, then the supernatant was discarded. The plate was blocked with PBS containing 1% BSA for 2 hours, and washed with PBST (PBS containing 0.05% Tween 20). Biotin-labeled FcγR extracellular domain protein (Beijing Sino Biological Co., Ltd) of appropriate concentration was added and incubated at room temperature for 1 hour, then the supernatant was discarded and the plate was washed with PBST. The Biotin-labeled protein was detected by incubating with Streptavidin-HRP (BD BioSciences) at room temperature for 1 hour. The supernatant was removed, and the color-developing solution was added for color development for 20-40 minutes to determine the absorbance of 650 nm (A650).
(§2) Anti-human OX40 antibodies containing these new Fc mutation combinations are expressed and the binding property of the mutant antibody to FcγR are analyzed by Enzyme-linked immunosorbent assay (ELISA).

FcγRIIIA^158V = molecular target: T4, FcγRIIIA^158V (human, UniProt P08637 17-208, biotin-labeled); test: ELISA, coated antibody, biotin-FcγR;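 for Absorbance value: antibody coated at 2 µg/mL at 100 µL per well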
T4 construct: extracellular domain; Bought protein; also called RIIIAV; CD16a 158V
T4 sequence (P08637 17-208 F176V): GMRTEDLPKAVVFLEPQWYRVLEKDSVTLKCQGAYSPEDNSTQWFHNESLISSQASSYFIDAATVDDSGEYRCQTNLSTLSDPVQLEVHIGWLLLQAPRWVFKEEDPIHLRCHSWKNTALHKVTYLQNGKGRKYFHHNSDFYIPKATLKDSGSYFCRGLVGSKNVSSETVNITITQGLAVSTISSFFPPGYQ
Procedure: as §1, §2

FcγRIIA^131H = molecular target: T2, FcγRIIA^131H; test: ELISA, coated antibody, biotin-FcγR;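 for Absorbance value: antibody coated at 2 µg/mL at 100 µL per well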
Procedure: as §1, §2

FcγRI = molecular target: T5, FcγRI (human, UniProt P12314 16-292, biotin-labeled); test: ELISA, coated antibody, biotin-FcγR;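 for Absorbance value: antibody coated at 2 µg/mL at 100 µL per well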
T5 construct: extracellular domain; Bought protein; also called CD64
T5 sequence (P12314 16-292): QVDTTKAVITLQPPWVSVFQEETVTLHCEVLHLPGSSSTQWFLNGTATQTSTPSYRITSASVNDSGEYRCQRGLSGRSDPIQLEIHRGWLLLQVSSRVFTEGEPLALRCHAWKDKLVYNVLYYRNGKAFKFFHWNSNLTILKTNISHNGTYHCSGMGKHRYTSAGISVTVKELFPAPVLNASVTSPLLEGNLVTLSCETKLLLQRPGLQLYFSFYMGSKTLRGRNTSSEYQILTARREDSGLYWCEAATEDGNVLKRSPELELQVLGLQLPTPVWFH
Procedure: as §1, §2

FcγRIIA^131R = molecular target: T3, FcγRIIA^131R; test: ELISA, coated antibody, biotin-FcγR;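 for Absorbance value: antibody coated at 2 µg/mL at 100 µL per well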
Procedure: as §1, §2

FcγRIIIA^158F = molecular target: T6, FcγRIIIA^158F (human, UniProt P08637 17-208, biotin-labeled); test: ELISA, coated antibody, biotin-FcγR;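 for Absorbance value: antibody coated at 2 µg/mL at 100 µL per well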
T6 construct: extracellular domain; Bought protein; also called RIIIAF
T6 sequence (P08637 17-208): as the sequence (P08637 17-208 F176V) above, with V160F counted along it
Procedure: as §1, §2

FcγRIIB [2] = molecular target: T1, FcγRIIB; test: ELISA; relative affinity to FcγRIIB over that to FcγRIIA131R
Procedure: as §1, §2

Binder	Absorbance value (FcγRIIB [1]) [A650]	Increased factor of RIIB binding compared with wild-type IgG2 (FcγRIIB [1]) [fold]	Relative binding affinity RIIB/G1 (FcγRIIB [1]) [ratio]	Absorbance value (FcγRIIIA^158V) [A650]	Relative binding affinity RIIIAV/G1 (FcγRIIIA^158V) [ratio]	Absorbance value (FcγRIIA^131H) [A650]	Relative binding affinity RIIAH/G1 (FcγRIIA^131H) [ratio]	Absorbance value (FcγRI) [A650]	Relative binding affinity RI/G1 (FcγRI) [ratio]	Absorbance value (FcγRIIA^131R) [A650]	Relative binding affinity RIIAR/G1 (FcγRIIA^131R) [ratio]	Absorbance value (FcγRIIIA^158F) [A650]	Relative binding affinity RIIIAF/G1 (FcγRIIIA^158F) [ratio]	RIIB/RIIAR (FcγRIIB [2]) [ratio]
B1	1.18	15.7	1.56	0.06	0.07	0.46	0.81	0.38	0.14	0.46	1.77	0.06	0.31	0.88
B2	0.5	6.63	0.66	0.06	0.06	0.05	0.08	0.09	0.03	0.05	0.19	0.06	0.3	3.52
B3	0.58	7.7	0.76	0.06	0.07	0.38	0.67	0.13	0.05	0.23	0.87	0.07	0.38	0.88
B4	1.2	16	1.59	0.07	0.08	0.2	0.34	0.12	0.05	0.74	2.83	0.07	0.38	0.56
B5	1.05	14.1	1.4	0.09	0.09	0.58	1.02	0.18	0.07	0.43	1.64	0.09	0.48	0.85
B6	1.01	13.4	1.33	0.08	0.08	0.55	0.96	0.13	0.05	0.36	1.36	0.08	0.41	0.98
B7	0.94	12.6	1.25	0.06	0.06	0.39	0.68	0.21	0.08	0.33	1.26	0.06	0.32	0.99
B8	0.73	9.75	0.97	0.08	0.09	0.33	0.58	0.18	0.07	0.26	1.01	0.07	0.37	0.96
B9	0.7	9.36	0.93	0.05	0.06	0.12	0.21	0.12	0.04	0.32	1.22	0.06	0.31	0.76
